Experimental data as given in patent publication US20010046665A1, “Method of identifying the function of a test agent” (priority 2000, published 2001).

Legend:
Type in all cases: cell-based
Design in all cases: key: *: up in IL-1α treatment; **: up in OPG treatment, down in thrombopoietin treatment; ***: up in IFNγ treatment; ****: up in IL-6 treatment
[1] = tested on: TF-1, Erythroleukemia; assay: GeneCalling confirmation of gene expression changes in TF-1 cells; details: confirmed by GeneCalling
[2] = tested on: MG-63, Osteosarcoma; assay: GeneCalling confirmation of gene expression changes in MG-63 cells; details: confirmed by GeneCalling; for Collagen gene expression change: up with OPG, down with thrombopoietin
[3] = tested on: U-87MG, Astrocytoma; assay: GeneCalling confirmation of gene expression changes in U-87MG cells; details: confirmed by GeneCalling

“IL-6: known protein used to treat the indicated cell lines in GeneCalling confirmation” was tested, and the “ICAM-1 gene expression change” value [1] was “ICAM-1****”.

For “thrombopoietin: known protein used to treat the indicated cell lines in GeneCalling confirmation”, the “Collagen gene expression change” value [2] was “Collagen**”.

B1: IL-1α: known protein used to treat the indicated cell lines in GeneCalling confirmation (protein, UniProt P01583 113-271, looked up)
Interleukin-1 alpha: SAPFSFLSNVKYNFMRIIKYEFILNDALNQSIIRANDQYLTAAALHNLDEAVKFDMGAYKSSKDDAKITVILRISKTQLYVTAQDEDQPVLLKEMPEIPKTITGSETNLLFFWETHGTKNYFTSVAHPNLFIATKQDYWVCLAGGPPSITDFQILENQA
In the case of B1, the “Factor B gene expression change” value [2] is reported as “Factor B*”, the “IL-8 gene expression change” value [2] is reported as “IL-8*” and the “IRF-1 gene expression change” value [2] is reported as “IRF-1*”. For the same molecule, the “LOX gene expression change” value [2] was “LOX*”, the “MxA gene expression change” value [2] was “MxA*” and the “TAP-1 gene expression change” value [2] was “TAP-1*”. The “IL-8 gene expression change” value [3] was “IL-8*”, the “MCP-1 gene expression change” value [3] was “MCP-1*” and the “Tenascin-c gene expression change” value [3] was “Tenascin-c*”.

B2: OPG: known protein used to treat the indicated cell lines in GeneCalling confirmation (protein, UniProt O00300 22-401, looked up)
Tumor necrosis factor …: ETFPPKYLHYDEETSHQLLCDKCPPGTYLKQHCTAKWKTVCAPCPDHYYTDSWHTSDECLYCSPVCKELQYVKQECNRTHNRVCECKEGRYLEIEFCLKHRSCPPGFGVVQAGTPERNTVCKRCPDGFFSNETSSKAPCRKHTNCSVFGLLLTQKGNATHDNICSGNSESTQKCGIDVTLCEEAFFRFAVPTKFTPNWLSVLVDNLPGTKVNAESVERIKRQHSSQEQTFQLLKLWKHQNKDQDIVKKIIQDIDLCENSVQRHIGHANLTFEQLRSLMESLPGKKVGAEDIEKTIKACKPSDQILKLLSLWRIKNGDQDTLKGLMHALKHSKTYHFPKTVTQSLKKTIRFLHSFTMYKLYQKLFLEMIGNQVQSVKISCL
B2 was tested, and the “Collagen gene expression change” value [2] was “Collagen**”.

B3: IFNγ: known protein used to treat the indicated cell lines in GeneCalling confirmation (protein, UniProt P01579 24-161, looked up)
Interferon gamma: QDPYVKEAENLKKYFNAGHSDVADNGTLFLGILKNWKEESDRKIMQSQIVSFYFKLFKNFKDDQSIQKSVETIKEDMNVKFFNSNKKKRDDFEKLTNYSVTDLNVQRKAIHELIQVMAELSPAAKTGKRKRSQMLFRG
For B3, the “IRF-1 gene expression change” value [1] was “IRF-1***” and the “IRF-1 gene expression change” value [3] was “IRF-1***”.
